# Data from patent publication US10428140B2, “Anti-EphA4 antibody” (EISAI R&D MANAGEMENT CO., LTD., priority 2015, dated 2019).
# Several values for one entry are separate records, joined by “and”; a condition that tells them apart may be missing. Identical values can stand only once.
# How the values were obtained:
# human EphA4 = molecular target: T1, human EphA4 (Homo sapiens, UniProt P54764); assay: Affinity of humanized antibodies by SPR (Biacore T200); format: binding; conditions: human EphA4 extracellular region-SEAP-His; for ka / kd: 1:1 binding model; for Kd: KD=kd/ka
# T1 construct: made in house; not restated for the human SEAP-His protein
# Experimental: The binding affinity of each anti-EphA4 monoclonal humanized antibody obtained in Example 16 for human EphA4 was determined by surface plasmon resonance (SPR) using Biacore T200 (GE Healthcare). First, for the assay of antibody A, a rat anti-mouse IgG1 antibody produced with a conventional method by immunizing rat with mouse IgG1 antibody was immobilized on sensor chip CM5. The immobilization of the rat anti-mouse IgG1 antibody on sensor chip CM5 was performed by the amine coupling method using N-hydroxysuccinimide (NHS) and N-ethyl-N′-(3-dimethylaminopropyl)carbodiimide hydrochloride (EDC). Ethanolamine was used in blocking (the sensor chip and the reagents for immobilization were all manufactured by GE Healthcare). The antibody was diluted with a buffer solution for immobilization (10 mM sodium acetate, pH 4.5) and immobilized on the sensor chip according to the protocol attached to Biacore T200. For the assay of each humanized monoclonal antibody, a protein A chip (GE Healthcare, 29-1383-03) was used. Antibody A or the humanized monoclonal antibody was diluted with a running buffer solution HBS-EP (GE Healthcare), injected onto only flow cell 2 for 120 seconds, and captured (captured amount: approximately 30 to 60 RU). Subsequently, human EphA4 extracellular region-SEAP-His protein serially diluted in the range of 50, 16.7, 5.6, 1.9, and 0.6 nM using HBS-EP was sequentially added from the lower toward higher concentration sides without regeneration operation. Binding reaction curves were sequentially observed at the time of the addition (association phase, for 120 sec) and after the completion of the addition (dissociation phase, for 900 sec). After the completion of each observation, the sensor chip was regenerated by the addition of 3 M MgCl2 (for 60 sec) or 10 mM Glycine-HCl pH 1.5 (for 30 sec). The obtained binding reaction curves were subjected to fitting analysis with 1:1 binding models using software BIA evaluation attached to the system to calculate the affinity (KD=kd/ka) for human EphA4 (Table 6).
# [1] = molecular target: T2, human EphA4 (binding to human Ephrin A5) (Homo sapiens, UniProt P54764); assay: Human EphA4-human ligand binding inhibition ELISA of humanized antibodies (biotinylated Ephrin A5-Fc); conditions: biotinylated human Ephrin A5-Fc 0.7 nM
# T2 construct: made in house; not restated for the human SEAP-His protein
# Experimental: Each anti-EphA4 monoclonal humanized antibody obtained in Example 16 was evaluated for its inhibitory activity against the binding between human EphA4 and its human ligand according to the following steps. Each well of a 96-well plate (Nunc) was coated with an anti-alkaline phosphatase antibody (Thermo Fisher Scientific). After incubation overnight at 4° C., each well was blocked with 1% BlockAce (DS Pharma Biomedical) at room temperature for 1 hour. After washing with 0.05% Tween 20/PBS (Thermo Fisher Scientific) three times, the human EphA4 extracellular region-SEAP-His protein obtained by the method of Example 2 was added (final concentration: 10 nM) to each well and incubated at room temperature for 1 hour. After washing three times, a ligand and each serially diluted humanized antibody of antibody A (0, 0.003, 0.01, 0.03, 0.1, 0.3, 1, 3, 10, 30, 100, 300, 1000, and 3000 nM) were added to each well. The ligand used was biotinylated human Ephrin A5-Fc chimera (R&D Systems, final concentration: 0.7 nM). After incubation at room temperature for 1 hour and subsequent washing three times, horseradish peroxidase-labeled streptavidin (GE Healthcare) was added thereto and incubated at room temperature for 1 hour. After washing three times, a TMBZ (3,3′,5,5′-tetramethylbenzidine, Sigma-Aldrich) solution was added to each well and incubated at room temperature for 2 minutes. An equal amount of a reaction stopping solution (1N H2SO4, Wako Pure Chemical Industries) was added to each well. The absorbance at 450 nm was read using a microplate reader (PerkinElmer).
# T1 sequence (P54764 20-547): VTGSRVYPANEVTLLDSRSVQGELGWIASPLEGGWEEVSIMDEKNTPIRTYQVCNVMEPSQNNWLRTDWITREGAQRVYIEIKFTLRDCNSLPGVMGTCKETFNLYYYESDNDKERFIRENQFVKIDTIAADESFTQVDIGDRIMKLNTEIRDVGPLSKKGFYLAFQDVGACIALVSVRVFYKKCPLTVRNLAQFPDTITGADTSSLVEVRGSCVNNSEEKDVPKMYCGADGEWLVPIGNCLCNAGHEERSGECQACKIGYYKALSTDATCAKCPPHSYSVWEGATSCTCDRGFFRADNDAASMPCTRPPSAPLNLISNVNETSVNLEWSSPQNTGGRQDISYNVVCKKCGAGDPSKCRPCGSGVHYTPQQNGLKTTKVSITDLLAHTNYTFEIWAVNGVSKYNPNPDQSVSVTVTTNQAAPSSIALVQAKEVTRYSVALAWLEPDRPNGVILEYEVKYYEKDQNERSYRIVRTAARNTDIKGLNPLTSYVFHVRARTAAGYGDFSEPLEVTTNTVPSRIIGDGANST
# T2 sequence (P54764 20-547): as above
Molecule,ka (human EphA4),kd (human EphA4),Kd (human EphA4),IC50 [1]
"139 (antibody, synthetic humanized antibody heavy chain variable region sequence; synthetic humanized antibody light chain variable region sequence; synthetic antibody constant region sequence) VH: QVQLVQSGSELKKPGASVKVSCKASGYTFTDYSMHWVRQAPGQGLEWMGWINTETGEPTYAQGFTGRFVFSLDTSVSTAYLQISSLKAEDTAVYYCARIPLYYYGSRYWYFDVWGQGTTVTVSS VL: DIQMTQSPSSLSASVGDRVTITCRASENIYRNLAWYQQKPGKAPKLLVYAATNLADGVPSRFSGSGSGTDYTLTISSLQPEDFATYYCQHFWGTPWTFGQGTKVEIK ASTKGPSVFPLAPSSRSTSESTAALGCLVKDYFPEPVTVSWNSGALTSGVHTFPAVLQSSGLYSLSSVVTVPSSNFGTQTYTCNVDHKPSNTKVDKTVERKSCVECPPCPAPPAAAPSVFLFPPKPKDTLMISRTPEVTCVVVDVSHEDPEVQFNWYVDGVEVHNAKTKPREEQFNSTFRVVSVLTVVHQDWLNGKEYKCKVSNKGLPAPIEKTISKTKGQPREPQVYTLPPSREEMTKNQVSLTCLVKGFYPSDIAVEWESNGQPENNYKTTPPMLDSDGSFFLYSKLTVDKSRWQQGNVFSCSVMHEALHNHYTQKSLSLSPG",370000 M⁻¹ s⁻¹,0.00053 s⁻¹,1.4 nM,3.3 nM
"153 (antibody, V domains shown, synthetic humanized antibody heavy chain variable region sequence; synthetic humanized antibody light chain variable region sequence) VH: QVQLVQSGSELKKPGASVKVSCKASGYTFTDYSMHWVRQAPGQGLKWMGWINTETGEPTYAQGFTGRFVFSLDTSVSTAYLQISSLKAEDTAVYYCARIPLYYYGSRYWYFDVWGQGTTVTVSS VL: DIQMTQSPSSLSASVGDRVTITCRASENIYRNLAWYQQKPGKAPKLLLYAATNLADGVPSRFSGSGSGTDYTLTISSLQSEDFATYYCQHFWGTPWTFGQGTKVEIK",290000 M⁻¹ s⁻¹,0.0006 s⁻¹,2.1 nM,2.3 nM
"140 (antibody, V domains shown, synthetic humanized antibody heavy chain variable region sequence; synthetic humanized antibody light chain variable region sequence) VH: QVQLVQSGSELKKPGASVKVSCKASGYTFTDYSMHWVRQAPGQGLKWMGWINTETGEPTYAQGFTGRFVFSLDTSVSTAYLQISSLKAEDTAVYYCARIPLYYYGSRYWYFDVWGQGTTVTVSS VL: DIQMTQSPSSLSASVGDRVTITCRASENIYRNLAWYQQKPGKAPKLLVYAATNLADGVPSRFSGSGSGTDYTLTISSLQPEDFATYYCQHFWGTPWTFGQGTKVEIK",320000 M⁻¹ s⁻¹,0.00043 s⁻¹,1.4 nM,2.4 nM
"142 (antibody, V domains shown, synthetic humanized antibody heavy chain variable region sequence; synthetic humanized antibody light chain variable region sequence) VH: QVQLVQSGSELKKPGASVKVSCKASGYTFTDYSMHWVRQAPGQGLKWMGWINTETGEPTYADDFKGRFVFSLDTSVSTAYLQISSLKAEDTAVYYCARIPLYYYGSRYWYFDVWGQGTTVTVSS VL: DIQMTQSPSSLSASVGDRVTITCRASENIYRNLAWYQQKPGKAPKLLVYAATNLADGVPSRFSGSGSGTDYTLTISSLQPEDFATYYCQHFWGTPWTFGQGTKVEIK",340000 M⁻¹ s⁻¹,0.0005 s⁻¹,1.5 nM,3.7 nM
"143 (antibody, V domains shown, synthetic humanized antibody heavy chain variable region sequence; synthetic humanized antibody light chain variable region sequence) VH: QIQLVQSGSELKKPGASVKVSCKASGYTFTDYSMHWVRQAPGQGLKWMGWINTETGEPTYADDFKGRFVFSLDTSVSTAYLQISSLKAEDTAVYYCARIPLYYYGSRYWYFDVWGQGTTVTVSS VL: DIQMTQSPSSLSASVGDRVTITCRASENIYRNLAWYQQKPGKAPKLLVYAATNLADGVPSRFSGSGSGTDYTLTISSLQPEDFATYYCQHFWGTPWTFGQGTKVEIK",350000 M⁻¹ s⁻¹,0.00051 s⁻¹,1.5 nM,5.3 nM
"152 (antibody, V domains shown, synthetic humanized antibody heavy chain variable region sequence; synthetic humanized antibody light chain variable region sequence) VH: QVQLVQSGSELKKPGASVKVSCKASGYTFTDYSMHWVRQAPGQGLEWMGWINTETGEPTYAQGFTGRFVFSLDTSVSTAYLQISSLKAEDTAVYYCARIPLYYYGSRYWYFDVWGQGTTVTVSS VL: DIQMTQSPSSLSASVGDRVTITCRASENIYRNLAWYQQKPGKAPKLLLYAATNLADGVPSRFSGSGSGTDYTLTISSLQSEDFATYYCQHFWGTPWTFGQGTKVEIK",400000 M⁻¹ s⁻¹,0.00082 s⁻¹,2 nM,2 nM
"138 (antibody, V domains shown, synthetic humanized antibody heavy chain variable region sequence; synthetic humanized antibody light chain variable region sequence) VH: QIQLVQSGSELKKPGASVKVSCKASGYTFTDYSMHWVRQAPGQGLKWMGWINTETGEPTYAQGFTGRFVFSLDTSVSTAYLQISSLKAEDTAVYYCARIPLYYYGSRYWYFDVWGQGTTVTVSS VL: DIQMTQSPSSLSASVGDRVTITCRASENIYRNLAWYQQKPGKAPKLLVYAATNLADGVPSRFSGSGSGTDYTLTISSLQPEDFATYYCQHFWGTPWTFGQGTKVEIK",330000 M⁻¹ s⁻¹ and 290000 M⁻¹ s⁻¹,0.00043 s⁻¹ and 0.00039 s⁻¹,1.3 nM and 1.4 nM,2.9 nM
"151 (antibody, V domains shown, synthetic humanized antibody heavy chain variable region sequence; synthetic humanized antibody light chain variable region sequence) VH: QIQLVQSGSELKKPGASVKVSCKASGYTFTDYSMHWVRQAPGQGLKWMGWINTETGEPTYAQGFTGRFVFSLDTSVSTAYLQISSLKAEDTAVYYCARIPLYYYGSRYWYFDVWGQGTTVTVSS VL: DIQMTQSPSSLSASVGDRVTITCRASENIYRNLAWYQQKPGKAPKLLLYAATNLADGVPSRFSGSGSGTDYTLTISSLQSEDFATYYCQHFWGTPWTFGQGTKVEIK",320000 M⁻¹ s⁻¹,0.00053 s⁻¹,1.7 nM,2 nM
"141 (antibody, V domains shown, synthetic humanized antibody heavy chain variable region sequence; synthetic humanized antibody light chain variable region sequence) VH: QVQLVQSGSELKKPGASVKVSCKASGYTFTDYSMHWVRQAPGQGLEWMGWINTETGEPTYADDFKGRFVFSLDTSVSTAYLQISSLKAEDTAVYYCARIPLYYYGSRYWYFDVWGQGTTVTVSS VL: DIQMTQSPSSLSASVGDRVTITCRASENIYRNLAWYQQKPGKAPKLLVYAATNLADGVPSRFSGSGSGTDYTLTISSLQPEDFATYYCQHFWGTPWTFGQGTKVEIK",390000 M⁻¹ s⁻¹,0.00062 s⁻¹,1.6 nM,3 nM
